According to patent US20150351390A1, “COMPOSITIONS AND METHODS FOR AUXIN-ANALOG CONJUGATION” (PIONEER HI-BRED INTERNATIONAL, INC., priority 2012, published 2015):

Columns and labels:
[1] = LC-MS assay of GH3 conjugation of IAA with Asp or Glu; format: biochemical; settings: for kcat (hrs−1) IAA-Asp: conjugation of IAA with Asp by recombinant GH3 protein, IAA-Asp product by LC-MS; for kcat (hrs−1) IAA-Glu: conjugation of IAA with Glu by recombinant GH3 protein, IAA-Glu product by LC-MS
Description: (§1) To detect and monitor the formation of acyl conjugates with 2,4-D or dicamba, a sensitive LC-MS method was developed using the respective amino acid conjugate standards. […] The reaction was performed at 30° C., 105 rpm, for 3 hours in buffer containing 20 mM Tris-HCl (pH 8.0), 5 mM MgCl2, 5 mM auxin (IAA, 2,4-D or dicamba), 5 mM ATP, 5 mM Asp or Glu, 1 mM DTT and 44 to 164 μg/mL purified GH3 protein in 100 μL reaction. After 3 hours of reaction, 400 μL 100% MeOH was added to the reaction mixture for protein precipitation. The supernatant was diluted 20× in water and then analyzed by LC-MS (AB Sciex 4000 QTrap coupled with Shimadzu Nexera UHPLC) using a Phenomenex Luna 3 μm Phenyl-Hexyl (00B-4256-Y0) column. The concentration of the conjugates was calculated based on the standards. Kinetic parameters were estimated by fitting initial velocity values to the Michaelis-Menten equation.
(§2) The GH3 superfamily conjugase activity analysis of IAA, 2,4-D or dicamba with Asp or Glu was done using LC-MS to analyze the final conjugate products as described in Example 1. Protein sequences of GH3 homologs (Table 3) were obtained from public databases (NCBI, http://www.ncbi.nlm.nih.gov/) by Blast analysis of AtGH3.17 protein sequence (accession # Q9FZ87). Coding sequences were designed for optimal expression in E. coli based on the protein sequences and synthesized. Synthesized coding sequences along with N-term his-tag coding sequences were cloned into a pET24a-based E. coli expression vector. The E. coli expression vectors were transformed into OverExpress C41(DE3) cells (Lucigen) for protein expression. Recombinant E. coli strains were inoculated into 5 ml LB media supplemented with 40 mg/L kanamycin and cultured overnight at 37° C. The overnight culture (0.5 mL) was inoculated into 50 mL LB medium plus 40 mg/L kanamycin and grown at 30° C. until OD600 reached 0.6. The cultures were induced with 0.2 mM IPTG at 16° C., 230 rpm overnight. Cells were harvested by centrifugation at 7,000 rpm for 10 mins. The cell pellet from 50 mL of cell culture was frozen and thawed twice and then lysed in 800 μL lysis buffer A (150 mM NaCl, 50 mM Tris-HCl pH 8.0, 5 mM MgCl2, 10% glycerol) plus 20 mM imidazole, 1 mM DTT, 0.2 mg/ml lysozyme, 1/200 protease inhibitor cocktail (EMD set3, EDTA free) and 1/2000 endonuclease. Lysate was then centrifuged at 13,000 rpm for 30 min at 4° C. Supernatant was loaded onto 200 μL Ni-NTA columns pre-equilibrated with buffer A with 20 mM imidazole at 4° C. Each column was then washed with (1) 2×800 μL of buffer A with 10 mM imidazole, (2) 2×800 μL of buffer A with 20 mM imidazole and (3) 2×200 μL of buffer A with 50 mM imidazole. Protein was eluted with 200 μL of buffer A with 250 mM imidazole. The concentration was measured by Bradford assay. Purified protein was used in conjugation reaction assays as described in example 1.

[2] = LC-MS assay of GH3 conjugation of 2,4-D with Asp or Glu; format: biochemical; settings: 5 mM 2,4-D substrate; for kcat (hrs−1) 2,4-D-Asp: conjugation of 2,4-D with Asp by recombinant GH3 protein, 2,4-D-Asp product by LC-MS; for kcat (hrs−1) 2,4-D-Glu: conjugation of 2,4-D with Glu by recombinant GH3 protein, 2,4-D-Glu product by LC-MS
Description: as §1, §2

B1: AlGH3-12: GH3 protein, accession XP_002871561 (protein, listed as Arabidopsis lyrata)
chain: MKPISDINESFEKQLKYLTSDVKQIQDNLLEEIITPNTKTEYLQRFLIGRFDKDLFKKNVPIVTYEDIKPYLDRVVNGESSDVISARPITGFLLSSGTSGGAQKMMPWNNKYLDNLTFIYDLRMQVITKHVKGVEEGKGMMFLFTKQESMTPSGLPARVATSSYFKSDYFKHRPSNWYYSYTSPDEVILCPNNTQSLYCHLLCGLVQRDEVVRTGSIFASVMVRAIEVLKNSWEELCSNIRSGHLSNWVTDLGCQSSVSLVLGGPRPELADTIEEICNQKSWKGIVKRLWPNTKYIETVVTGSMGQYVPMLNYYCNDLPLVSTTYGSSETTFGINLDPLCKPEDVSYTFMPNMSYFEFIPMDGDNNDVVDLEDVKLGCTYEPVVTNFAGLYRMRVGDIVLVTGFYNNAPQFKFVRRENVVLSIDSDKTNEEDLFKAVSQAKLVLESSGLDLKDFTSYADTSTFPGHYVVYLEVDTKEGEEKKTAQFELDEEALSMCCLVMEESLDNVYKRCRFKDGSIGPLEIRVVRQGTFISLMDFFISQGASTGQYKTPRCIKSGKALQVLETCVVAKFFSS
In the case of B1, the “Conjugation of Glu to IAA” value ([1]; result in words) is reported as “can also conjugate Glu to IAA”.

B2: SbEES16535: GH3 protein, accession EES16535 (protein)
chain: MAHTPAMENSYVQVHHLATSMAIHTHKPFLAPPKHVHLAFHSPTSAPSRLLATTRSRPGLSQPAAMMAETDADKLRFIEEVTADVAAVQERVLAEILSRNADAEYLSTRCGGATDRATFRAKVPMVTYEDLQPYILRIAHGDRSPILSGSGYPVSELLTSSGAGDRKLIPVVDDDHDRHHRLHSLVGAVVNQYVPGLDKGSGLYFLFVKSETTTPGGLPARTILTRIFTSDGVWKLPYNPRRGLTSPAAAVVCEDTFQSMYTQMLCGLCHRHSVLRVGAAFASGVLRAIRFFQRNWPQLAADIDAGTITDRVTDHVLRQALAGVLTQPDPDLARVVRSEGSKADDGADMAGIIARLWPNTKYVHAVATGSMAHYVPALNHYSGGLPIVSTAYFSSECSVGINLRPMCDPSEVSYTVMPNMAYFEFLPTDDDDATASATSQLVELAGVEVGREYELVVTTYSGLCRYRVGDVLRVTGFHNTAPQLRFVRRRNAVLSVESDKTDEVELQRAVDRASAALLRPLGAAVADYTARTCAETVPGHYVVYWELQLPLGAADVVVDGGDVLDRCCLEMEEALSSVYRQSRVADGTVGPLEIRVVRPGTFEELADHAVARGASVGQYKVPRCVTAPPDIELLDSRVVSNHFSPALPKWVPG
modifications: Sorghum bicolor
For B2, the “kcat (hrs−1) IAA-Asp” value [1] was 0.000 h⁻¹, the “kcat (hrs−1) IAA-Glu” value [1] was 0.000 h⁻¹ and the “IAA conjugation activity with Asp or Glu” value ([1]; result in words) was “IAA-inactive”. For the same molecule, the “kcat (hrs−1) 2,4-D-Asp” value [2] was 0.000 h⁻¹ and the “kcat (hrs−1) 2,4-D-Glu” value [2] was 0.000 h⁻¹.

B3: SmXP_002981880: GH3 protein, accession XP_002981880 (protein, listed as Selaginella moellendorffii)
chain: MAASAIAEFEDACKNAASIQEELLLGILRKNACCEYLQKYGSPLTVAAFKSQVPVIGYDDIRSDLERIAGGDRGQILCHDPITSFFTSSGTSSGKNKNIPATYENTVSVVKVLESSYAYKTNYFDLGKGRSVSLLYFKDLHATKSGLVFGPVTAHGIRSTRFRQVWRSSRTTPYEVLVAASDFRELTYCHLLCALLQRHEVEQVECMYAYSICEALRLFQNEYWEELCNDIRTASLSKTKVMDPKLRKAFERAGVFRSKCGNAMEADKIFKICSNESWSGILPLLFPKAKLVSAVVTGAMTHYVPTLSFYAGDQLPIVGQGFFSSEGGIGINIDPLSPPEDVIYTVTPRSLYYEFLPLGATEALSMHEVVIGELYEILVTNFAGLYRCRMGDVVQITSFFHGAPQMAYHHRKNAVMCINNETVDEQMLQNVVNKVSKDAGVEVLDFMIYGDPAAVPPSYTIFWELGNAKDYSKTQVLEQCCANVLKSFNPEHTRKGTDGLIDSFELVIVKKGTFERLMEEAVKNGASPAQYKTPRCVASSRILEALNSGRVHSYKSSAMSKVN
With B3 the “kcat (hrs−1) IAA-Asp” value [1] was 1.475 h⁻¹, the “kcat (hrs−1) IAA-Glu” value [1] was 1.759 h⁻¹ and the “IAA conjugation activity with Asp or Glu” value ([1]; result in words) was “can also conjugate IAA to Asp and Glu”. The “kcat (hrs−1) 2,4-D-Asp” value [2] was 0.144 h⁻¹ and the “kcat (hrs−1) 2,4-D-Glu” value [2] was 0.739 h⁻¹.

B4: OsGH3-10: GH3 protein, accession Q6ZLA7 (protein, listed as Oryza sativa)
chain: MAAKGISTIGAASRSLSSSLMAAAKEPDVENLRLIEELTSNVDAVQERVLAEILGRNADAEYLDKCGLDASDTDRATFRAKVPVASYDDLKPYVKRIANGDRSPILSTHPIIEFFTSSGTSAGERKLMPIVTDEMARREVLSSLATSVLNVYVPGLHTGKGLYFLFARSETKTPGGLTAQPALTSVYKSEHFKRAYAYTSPMAAILCEDASQSMYAQMLCGLCQRHDVLRVGAVFAAALVRAIRFLQLNWAQLAADIETGELNPRVTDPSDRECSRGDWTGIVTRLWPKTKCLNVVVTGVMAQYIPTLQYYSGGLPIVSGMYASSECFFGLNLRPLCGPSEVSYTIMPNTAYFEFLPVGEAVDASNLVELARVEDGREYEVVVTTYAGLNRYRVGDVLCVTGFHNAAPQFRFVRRQSVLLSIEADKTDEAELQRAVERASSALLRPRGASIVEYTSRACTERVPGHFSPALPHWTLAP
For B4, the “kcat (hrs−1) IAA-Asp” value [1] was 0.000 h⁻¹, the “kcat (hrs−1) IAA-Glu” value [1] was 0.000 h⁻¹ and the “IAA conjugation activity with Asp or Glu” value ([1]; result in words) was “IAA-inactive”. For the same molecule, the “kcat (hrs−1) 2,4-D-Asp” value [2] was 0.000 h⁻¹ and the “kcat (hrs−1) 2,4-D-Glu” value [2] was 0.000 h⁻¹.

B5: AtGH3-3: GH3 protein, accession O22190 (protein, listed as Arabidopsis thaliana)
chain: MTVDSALRSPMMHSPSTKDVKALRFIEEMTRNVDFVQKKVIREILSRNSDTEYLKRFGLKGFTDRKTFKTKVPVVIYDDLKPEIQRIANGDRSMILSSYPITEFLTSSGTSAGERKLMPTIDEDMDRRQLLYSLLMPVMNLYVPGLDKGKALYFLFVKTESKTPGGLPARPVLTSYYKSEQFKRRPNDPYNVYTSPNEAILCPDSSQSMYTQMLCGLLMRHEVLRLGAVFASGLLRAIGFLQTNWKELADDISTGTLSSRISDPAIKESMSKILTKPDQELADFITSVCGQDNSWEGIITKIWPNTKYLDVIVTGAMAQYIPMLEYYSGGLPMACTMYASSESYFGINLKPMCKPSEVSYTIMPNMAYFEFLPHHEVPTEKSELVELADVEVGKEYELVITTYAGLNRYRVGDILQVTGFYNSAPQFKFVRRKNVLLSIESDKTDEAELQSAVENASLLLGEQGTRVIEYTSYAETKTIPGHYVIYWELLVKDQTNPPNDEVMARCCLEMEESLNSVYRQSRVADKSIGPLEIRVVKNGTFEELMDYAISRGASINQYKVPRCVSFTPIMELLDSRVVSTHFSPALPHWSPERRR
For B5, the “kcat (hrs−1) IAA-Asp” value [1] was 0.000 h⁻¹, the “kcat (hrs−1) IAA-Glu” value [1] was 0.000 h⁻¹ and the “IAA conjugation activity with Asp or Glu” value ([1]; result in words) was “IAA-inactive”. For the same molecule, the “kcat (hrs−1) 2,4-D-Asp” value [2] was 0.000 h⁻¹ and the “kcat (hrs−1) 2,4-D-Glu” value [2] was 0.000 h⁻¹.

B6: AtGH3-17: GH3 protein, accession Q9FZ87 (protein, listed as Arabidopsis thaliana)
chain: MIPSYDPNDTEAGLKLLEDLTTNAEAIQQQVLHQILSQNSGTQYLRAFLDGEADKNQQSFKNKVPVVNYDDVKPFIQRIADGESSDIVSAQPITELLTSSGTSAGKPKLMPSTAEELERKTFFYSMLVPIMNKYVDGLDEGKGMYLLFIKPEIKTPSGLMARPVLTSYYKSQHFRNRPFNKYNVYTSPDQTILCQDSKQSMYCQLLCGLVQRSHVLRVGAVFASAFLRAVKFLEDHYKELCADIRTGTVTSWITDSSCRDSVLSILNGPNQELADEIESECAEKSWEGILRRIWPKAKYVEVIVTGSMAQYIPTLEFYSGGLPLVSTMYASSECYFGINLNPLCDPADVSYTLLPNMAYFEFLPVDDKSHEEIHFATHSNTDDDDDALKEDLIVNLVNVEVGQYYEIVITTFTGLYRYRVGDILKVTGFHNKAPQFRFVQRRNVVLSIDTDKTSEEDLLNAVTQAKLNHLQHPSSLLLTEYTSYADTSSIPGHYVLFWELKPRHSNDPPKLDDKTMEDCCSEVEDCLDYVYRRCRNRDKSIGPLEIRVVSLGTFDSLMDFCVSQGSSLNQYKTPRCVKSGGALEILDSRVIGRFFSKRVPQWEPLGLDS
With B6 the “kcat, conjugation of IAA with Asp” value ([1]; IAA with Asp) was 0.0144 s⁻¹, the “kcat, conjugation of IAA with Glu” value ([1]; IAA with Glu) was 0.241 s⁻¹ and the “kcat (hrs−1) IAA-Asp” value [1] was 51.838 h⁻¹. For the same molecule, the “kcat (hrs−1) IAA-Glu” value [1] was 867.723 h⁻¹, the “kcat (hrs−1) 2,4-D-Asp” value [2] was 0.424 h⁻¹ and the “kcat (hrs−1) 2,4-D-Glu” value [2] was 0.988 h⁻¹.
